Laboratory results taken from patent publication US20080261241A1, “Targeted ubiquitination of proteins and screening methods using a new class of ubiquitin ligase proteins” (INSTITUT PASTEUR, priority 2007, published 2008).
Peptide text beside a SMILES is read from it. * marks the point of attachment. Cbz = O=C(OCc1ccccc1)*

What was measured:
proteasome = test: Proteasome inhibition: Ste7 disappearance in MG132-permeable erg6 mutant; type: cell-based, Saccharomyces cerevisiae; settings: MG132 100 μM, 2 h
Experimental: To test if the IpaH-mediated disappearance of Ste7 required proteasome function, a yeast strain carrying the cim5-1 allele encoding a component of the 26-S proteasome that is functional at 25° C. but not at 37° C. (Ghislain et al., 1993) was used. […] (FIG. 3A). […] Thus, the disappearance of Ste7 promoted by IpaH9.8 is proteasome-dependent.
Standard media and techniques were used for transformation, maintenance, and growth of yeast (Guthrie C, 1991). Halo assays were performed as described (Hoffman et al., 2002) using disks impregnated with 15 μg of α-factor. erg6 ? yeast were transformed with plasmids encoding IpaH9.8 or IpaH9.8-C337A and grown in selective media containing 1% raffinose to mid log phase. Following addition of MG132 (100 μM) and galactose (2%), cultures were incubated for 2 h and cell extracts were prepared as described (Wang et al., 2003). β-Galactosidase assays were performed as described (Guarente, 1983).

[1] = target: His-tagged UbcH5B, P62837
sst2Δ cells = test: Growth of sst2Δ yeast in the presence of pheromone; type: cell-based, Saccharomyces cerevisiae; settings: galactose-induced production, α-factor plates

Chain of His-tagged UbcH5B, P62837 (P62837 whole entry, looked up): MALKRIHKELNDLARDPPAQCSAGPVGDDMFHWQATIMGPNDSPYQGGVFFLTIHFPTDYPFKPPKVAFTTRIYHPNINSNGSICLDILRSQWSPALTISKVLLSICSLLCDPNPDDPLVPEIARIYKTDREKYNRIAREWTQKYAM

CC(C)C[C@@H](C=O)NC(=O)[C@H](CC(C)C)NC(=O)[C@H](CC(C)C)NC(=O)OCc1ccccc1 [MG132] (Cbz-Leu-Leu-Leu-aldehyde)
disappearance of Ste7 provoked by IpaH9.8 (proteasome): prevented the disappearance of Ste7

B1: GST-IpaH9.8 (protein)
chain: MLPINNNFSLPQNSFYNTISGTYADYFSAWDKWEKQALPGEERDEAVSRLKECLINNSDELRLDRLNLSSLPDNLPAQITLLNVSYNQLTNLPELPVTLKKLYSASNKLSELPVLPPALESLQVQHNELENLPALPDSLLTMNISYNEIVSLPSLPQALKNLRATRNFLTELPAFSEGNNPVVREYFFDRNQISHIPESILNLRNECSIHISDNPLSSHALQALQRLTSSPDYHGPRIYFSMSDGQQNTLHRPLADAVTAWFPENKQSDVSQIWHAFEHEEHANTFSAFLDRLSDTVSARNTSGFREQVAAWLEKLSASAELRQQSFAVAADATESCEDRVALTWNNLRKTLLVHQASEGLFDNDTGALLSLGREMFRLEILEDIARDKVRTLHFVDEIEVYLAFQTMLAEKLQLSTAVKEMRFYGVSGVTANDLRTAEAMVRSREENEFTDWFSLWGPWHAVLKRTEADRWAQAEEQKYEMLENEYPQRVADRLKASGLSGDADAEREAGAQVMRETEQQIYRQLTDEVLALRLSENGSQLHHS
removal of ubiquitin from ubiquitinated UbcH5B, immunoblot with streptavidin-peroxidase [1]: after ubiquitination of UbcH5B, addition of GST-IpaH9.8 to the reaction mixture promoted the removal of ubiquitin from UbcH5B

B2: GST-SspH1 (protein)
chain: EFMLPINNNFSLPQNSFYNTISGTYADYFSAWDKWEKQALPGEERDEAVSRLKECLINNSDELRLDRLNLSSLPDNLPAQITLLNVSYNQLTNLPELPVTLKKLYSASNKLSELPVLPPALESLQVQHNELENLPALPDSLLTMNISYNEIVSLPSLPQALKNLRATRNFLTELPAFSEGNNPVVREYFFDRNQISHIPESILNLRNECSIHISDNPLSSHALQALQRLTSSPDYHGPRIYFSMSDGQQNTLHRPLADAVTAWFPENKQSDVSQIWHAFEHEEHANTFSAFLDRLSDTVSARNTSGFREQVAAWLEKLSASAELRQQSFAVAADATESCEDRVALTWNNLRKTLLVHQASEGLFDNDTGALLSLGREMFRLEILEDIARDKVRTLHFVDEIEVYLAFQTMLAEKLQLSTAVKEMRFYGVSGVTANDLRTAEAMVRSREENEFTDWFSLWGPWHAVLKRTEADRWAQAEEQKYEMLENEYPQRVADRLKASGLSGDADAEREAGAQVMRETEQQIYRQLTDEVLALRLFENGSQLHHS
removal of ubiquitin from ubiquitinated UbcH5B [1]: SspH1 was endowed with the activities (i) to remove ubiquitin from ubiquitinated UbcH5B

B3: IpaH7.8: another IpaH family member from Shigella (protein, UniProt P18014 1-565, looked up)
E3 ubiquitin-protein ligase …: MFSVNNTHSSVSCSPSINSNSTSNEHYLRILTEWEKNSSPGEERGIAFNRLSQCFQNQEAVLNLSDLNLTSLPELPKHISALIVENNKLTSLPKLPAFLKELNADNNRLSVIPELPESLTTLSVRSNQLENLPVLPNHLTSLFVENNRLYNLPALPEKLKFLHVYYNRLTTLPDLPDKLEILCAQRNNLVTFPQFSDRNNIRQKEYYFHFNQITTLPESFSQLDSSYRINISGNPLSTRVLQSLQRLTSSPDYHGPQIYFSMSDGQQNTLHRPLADAVTAWFPENKQSDVSQIWHAFEHEEHANTFSAFLDRLSDTVSARNTSGFREQVAAWLEKLSASAELRQQSFAVAADATESCEDRVALTWNNLRKTLLVHQASEGLFDNDTGALLSLGREMFRLEILEDIARDKVRTLHFVDEIEVYLAFQTMLAEKLQLSTAVKEMRFYGVSGVTANDLRTAEAMVRSREENEFTDWFSLWGPWHAVLKRTEADRWAQAEEQKYEMLENEYSQRVADRLKASGLSGDADAEREAGAQVMRETEQQIYRQLTDEVLALRLSENGSRLHHS
growth of sst2Δ cells in the presence of pheromone (sst2Δ cells): rescued the pheromone-induced growth arrest of sst2Δ cells
